Data published in patent US20140120109A1 (Regeneron, published 2014).

Key:
[1] = molecular target: T1, full length rat TL1A expressed on HEK293 cells (rat, UniProt Q8K3Y7 1-252); test: cell-based or functional assay
T1 sequence: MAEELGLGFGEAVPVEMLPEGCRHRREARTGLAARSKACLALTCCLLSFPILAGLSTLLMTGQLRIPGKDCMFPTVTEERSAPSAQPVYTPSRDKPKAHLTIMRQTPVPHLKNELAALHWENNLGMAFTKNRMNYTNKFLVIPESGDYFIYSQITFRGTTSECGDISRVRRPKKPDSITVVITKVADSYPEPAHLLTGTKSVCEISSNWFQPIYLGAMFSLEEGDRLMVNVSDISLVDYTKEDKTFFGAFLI

[2] = molecular target: T2, human TL1A, soluble, CHO-expressed, residues 72-251 of SEQ ID NO:244 with N-terminal His6-tag (human, UniProt O95150 72-251); test: cell-based or functional assay
T2 sequence: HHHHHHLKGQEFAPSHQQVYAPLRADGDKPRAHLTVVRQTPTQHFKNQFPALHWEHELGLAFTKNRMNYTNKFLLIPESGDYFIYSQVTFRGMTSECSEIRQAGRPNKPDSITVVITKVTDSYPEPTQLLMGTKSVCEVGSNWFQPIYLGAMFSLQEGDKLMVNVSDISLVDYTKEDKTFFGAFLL

[3] = molecular target: T3, full length human TL1A expressed on HEK293 cells (human, UniProt O95150 1-251); test: flow, HEK293/hTL1A, mAb 1 ug/ml + 0.1 ug/ml soluble hTL1A
T3 construct: also called HEK293/hTL1A; cell-surface hTL1A
T3 sequence: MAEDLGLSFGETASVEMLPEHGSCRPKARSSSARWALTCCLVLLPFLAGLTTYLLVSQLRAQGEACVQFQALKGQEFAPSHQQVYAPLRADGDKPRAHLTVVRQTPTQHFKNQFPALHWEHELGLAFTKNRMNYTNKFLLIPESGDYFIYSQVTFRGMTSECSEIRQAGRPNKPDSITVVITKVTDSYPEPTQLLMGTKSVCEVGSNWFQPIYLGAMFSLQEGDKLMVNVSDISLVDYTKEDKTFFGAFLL
Protocol: Human embryonic kidney 293 cells stably transfected to over-express cell-surface hTL1A were first stained in a flow cytometric experiment with eight anti-hTL1A antibodies at four concentrations (1, 0.1, 0.01, and 0.003 μg/ml). […] The lowest antibody concentration providing significant staining levels was then used in a competition binding experiment. A negative isotype control antibody (human IgG4) was used at 1 μg/ml to define the background signal. For the competition experiment, eight antibody samples, at the minimal concentrations identified above, were first treated with soluble hTL1A expressed from CHO cells at concentrations ranging from 0.03 μg/ml to 10 μg/ml. After pre-incubation for 30 min on ice, the antibody/hTL1A mixture was added to 293/HEK-hTL1A cells that had been isolated by centrifugation in a 96-well conical plate. After incubation for an additional 10 minutes on ice, the cells were washed. The secondary reagent, anti-h Fcγ-APC F(ab′)₂, was added to all wells at a 200-fold dilution to detect bound antibodies. Samples were incubated for 15 minutes on ice, away from light, and then washed. Cells were processed on an BD™ LSR II Flow Cytometer (BD Biosciences) to detect anti-hTL1A antibodies bound to the cell surface, and data were analyzed using FlowJo software (version 8.8.6; Tree Star Inc.). Maximum signal: Anti-hTL1A antibody binding in the absence of soluble hTL1A; Minimum signal: Signal recorded when […] of isotype control antibody was added in place of the anti-hTL1A antibody. NT: Not tested.

IC50, reporter + 10,000 TL1A cells [1]: 95 nM | % Blocking IFN-g, D1, 1 ug/ml mAb [2]: 100% | % Blocking IFN-g, D1, 3 ug/ml mAb [2]: 100% | % Blocking IFN-g, D2, 1 ug/ml mAb [2]: 100% | % Blocking IFN-g, D2, 3 ug/ml mAb [2]: 100% | % Blocking IFN-g, D3, 1 ug/ml mAb [2]: 90% | % Blocking IFN-g, D3, 3 ug/ml mAb [2]: 100% | % Blocking IFN-g, D4, 1 ug/ml mAb [2]: 90% | % Blocking IFN-g, D4, 3 ug/ml mAb [2]: 100% | % Blocking IFN-g, D5, 1 ug/ml mAb [2]: 100% | % Blocking IFN-g, D5, 3 ug/ml mAb [2]: 100% | % Blocking IFN-g, D6, 1 ug/ml mAb [2]: 45% | % Blocking IFN-g, D6, 3 ug/ml mAb [2]: 100% | % Blocking IFN-g, D7, 1 ug/ml mAb [2]: 55% | % Blocking IFN-g, D7, 3 ug/ml mAb [2]: 100% | % Blocking IFN-g, D8, 1 ug/ml mAb [2]: 100% | % Blocking IFN-g, D8, 3 ug/ml mAb [2]: 100% | % Blocking IFN-g, D9, 1 ug/ml mAb [2]: 55% | % Blocking IFN-g, D9, 3 ug/ml mAb [2]: 95% | % Blocking IFN-g, D10, 1 ug/ml mAb [2]: 80% | % Blocking IFN-g, D10, 3 ug/ml mAb [2]: 85% | MFI [3]: 97.2
B1: H4H1817N (antibody, human IgG4 S228P, V domains shown)
VH: QVQLQQWGAGLLKPSETLSLTCAVSGGSFSDYFWTWIRQPPGKGLEWIGEISHSGRTNYNPSLKSRVTISVDTSMSQFSLKMTSVTAADSAVYYCARDYPNWVFDYWGQGTLVTVSS
VL: EIELTQSPGTLSLSPGEGATLSCRASQSVFNSYLAWYQQKPGQAPRLLIYGASRRATGIPDRFSGSGSGTDFTLTISRLEPGDFAVYFCQQYGNSPLTFGGGTKVEIK
notes: human IgG4(S108P) form of H2M1817N
